Data: patent US20210000895A1 (RHODE ISLAND HOSPITAL, published 2021)

Biological target: CD4 receptor on primary human CD4+ T lymphocytes (human, UniProt P01730 26-458)
Experiment: cell-based or functional assay

B1: IL-16/Lamp2b fusion protein (Interleukin (IL)-16 C-terminal 20 amino acid domain fused to the N-terminus of lysosome-associated membrane protein 2 variant b), … (other)
chain: GNSTMGSGTIVIRRKSLQSKETTAAGDSGSGSGSGGSSLELNLTDSENATCLYAKWQMNFTVRYETTNKTYKTVTISDHGTVTYNGSICGDDQNGPKIAVQFGPGFSWIANFTKAASTYSIDSVSFSYNTGDNTTFPDAEDKGILTVDELLAIRIPLNDLFRCNSLSTLEKNDVVQHYWDVLVQAFVQNGTVSTNEFLCDKDKTSTVAPTIHTTVPSPTTTPTPKEKPEAGTYSVNNGNDTCLLATMGLQLNITQDKVASVININPNTTHSTGSCRSHTALLRLNSSTIKYLDFVFAVKNENRFYLKEVNISMYLVNGSVFSIANNNLSYWDAPLGSSYMCNKEQTVSVSGAFQINTFDLRVQPFNVTQGKYSTAQECSLDDDTILIPIIVGAGLSGLIIVIVIAYVIGRRKSYAGYQTLGSGYPYDVPDYA
  Tat protein delivery to rCD4+T lymphocytes (Western blot of intracellular Tat), EXO^CD4-Tat exosomes compared to EXO-Tat exosomes: 20 fold
